Data reported in patent US20120003180A1.

Assays:
[1] = target: α5β1 integrin protein, covalently immobilised on the optical biosensor cuvette; experiment: optical biosensor (IAsys), α5β1 immobilised, D3904A DV free in solution; Kd from Koff/Kon
[2] = target: α5β1 integrin protein, covalently immobilised on the optical biosensor cuvette; experiment: optical biosensor (IAsys), α5β1 immobilised, D3904A DV free in solution
[3] = target: α5β1 integrin protein, covalently immobilised on the optical biosensor cuvette; experiment: optical biosensor (IAsys), α5β1 immobilised
[4] = target: α5β1 integrin protein, covalently immobilised on the optical biosensor cuvette; experiment: optical biosensor (IAsys), α5β1 immobilised, LG3 free in solution
[5] = target: α5β1 integrin protein, covalently immobilised on the optical biosensor cuvette; experiment: optical biosensor (IAsys), α5β1 immobilised, LG3 free in solution; Kd from Koff/Kon

Kd [1] | koff [2] | affinity relative to non-mutated DV (fold of the affinity of non-mutated DV) [3] | koff [4] | Kd [5] | Substance
0.37 µM | 0.22 s⁻¹ | < 0.5 | – | – | D3904A DV (perlecan Domain V with DGR mutated to AGR), C-terminal 6×His tag (from UniProt P98160 3687-4391) (ligand)
– | – | – | 1.7 s⁻¹ | 1000 µM | LG3, the C-terminal fragment of perlecan Domain V, with C-terminal 6×His tag (from UniProt P98160 4197-4391) (ligand)
